The Km is the concentration of substrate that gives half-maximal velocity.

We go through seven molecules from article PMC4249942 (Biochemistry, 2012).

Residue numbers refer to the chain shown, from its start. Names may count otherwise.

The target of data set [1] is T1, PerB (Caulobacter vibrioides, UniProt O85353). The experiment in a line: X-ray crystal structure, […] Å. The class given is binding.
Data set [2] concerns the target T1, PerB. The experiment in a line: HPLC, ESI-MS and 1H NMR of the product. To be noted: acetyl CoA 1 mM, HEPES pH 7.5, 10 mM MgCl2, room temperature. It is filed as biochemical.
Substrate in data set [3]: CC(=O)SCCNC(=O)CCNC(=O)[C@H](O)C(C)(C)COP(=O)(O)OP(=O)(O)OC[C@H]1O[C@@H](n2cnc3c(N)ncnc32)[C@H](O)[C@@H]1OP(=O)(O)O
The experiment in a line: discontinuous HPLC assay. The conditions noted are these: pH 8.0, 25 °C, GDP-perosamine co-substrate. It is filed as biochemical, Caulobacter vibrioides.

Substrate in data set [4]: C[C@H]1O[C@H](OP(=O)(O)OP(=O)(O)OC[C@H]2O[C@@H](n3cnc4c(=O)[nH]c(N)nc43)[C@H](O)[C@@H]2O)[C@@H](O)[C@@H](O)[C@@H]1N
The experiment in a line: discontinuous HPLC assay. The class given is biochemical, Caulobacter vibrioides. The conditions noted are these: pH 8.0, 25 °C, acetyl CoA co-substrate.

In the case of `CC(=O)N[C@H]1[C@H](O)[C@H](O)[C@@H](OP(=O)(O)OP(=O)(O)OC[C@H]2O[C@@H](n3cnc4c(=O)[nH]c(N)nc43)[C@H](O)[C@@H]2O)O[C@@H]1C` [GDP-N-acetylperosamine], the “X-ray crystal structure, 1.0 Å” value in data set [1] (with CoA, formed by turnover in the crystal) was “The enzyme turned over, and CoA and GDP-N-acetylperosamine were left bound in the active site”.
`C[C@H]1O[C@H](OP(=O)(O)OP(=O)(O)OC[C@H]2O[C@@H](n3cnc4c(=O)[nH]c(N)nc43)[C@H](O)[C@@H]2O)C(O)CC1N` (some centres unmarked) [GDP-3-deoxyperosamine]: the “HPLC, ESI-MS and 1H NMR of the product” value in data set [2] is listed as “Using GDP-3-deoxyperosamine, we were able to, indeed, show that PerB produces an acetylated form”.
Consider `CC(C)(COP(=O)(O)OP(=O)(O)OC[C@H]1O[C@@H](n2cnc3c(N)ncnc32)[C@H](O)[C@@H]1OP(=O)(O)O)[C@@H](O)C(=O)NCCC(=O)NCCS` [CoA], for which, in data set [1] (with GDP-perosamine), the “X-ray crystal structure, 1.0 Å” value is “The first was that of the enzyme with bound CoA and GDP-perosamine”.

B1: PerB (Caulobacter vibrioides) (protein)
chain: MSASLAIGGVVIIGGGGHAKVVIESLRACGETVAAIVDADPTRRAVLGVPVVGDDLALPMLREQGLSRLFVAIGDNRLRQKLGRKARDHGFSLVNAIHPSAVVSPSVRLGEGVAVMAGVAINADSWIGDLAIINTGAVVDHDCRLGAACHLGPASALAGGVSVGERAFLGVGARVIPGVTIGADTIVGAGGVVVRDLPDSVLAIGVPAKIKGDRS
On to B1, for which the Km came out at 150 ± 20 µM in data set [3] and 87 ± 11 µM in data set [4].

B2: PerB (Caulobacter vibrioides; H141A) (protein)
chain: B1 chain with H141A
In the case of B2, the Km was found to be 110 ± 10 µM in data set [3] and 200 ± 10 µM in data set [4].

B3: PerB (Caulobacter vibrioides; D142N) (protein)
chain: B1 chain with D142N
On to B3, for which the Km in data set [3] amounted to 59 ± 7 µM; in data set [4], 110 ± 10 µM.

B4: PerB (Caulobacter vibrioides; H141N) (protein)
chain: B1 chain with H141N
For the molecule B4, the Km in data set [3] was found to be 94 ± 17 µM; in data set [4] it was 150 ± 10 µM.
